The text below walks through data of PMC12865031, “Mechanistic insights into PCBP1-driven unfolding of selected i-motif DNA at G1/S checkpoint”.

Data set [1] addresses T1, PCBP1 (wild type) (UniProt Q15365 1-356). Nature of the data set: EMSA; pH 6.4, i-motif; MST: 20 mM MES pH 6.4, phosphate pH 7.0 or Tris-Cl pH 8.0, 100 mM NaCl, 25 C; EMSA: 20 mM Bis-Tris pH 6.4 or Tris-HCl pH 8.0, 100 mM NaCl, 0.25 mg/mL BSA, 25 C; NMR/CD: 20 mM MES pH 6.4, 100 mM NaCl; footprinting 20 mM MES pH 6.4, 50 mM NaCl. The note with it: protein: recombinant; tags: His tag (pET-His1a), removed by TEV; label: 5'-Cy5 (EMSA, MST); intramolecular i-motif at pH 6.4; unfolded at pH 7.0 and 8.0. For orientation: A gel shift assay detects complexes by their altered migration in electrophoresis.

The target of data set [2] is T2, PCBP1 KH1+2 (UniProt Q15365 1-169). As to the kind of experiment: MST; pH 6.4; no structural selectivity; MST: 20 mM MES pH 6.4, phosphate pH 7.0 or Tris-Cl pH 8.0, 100 mM NaCl, 25 C; EMSA: 20 mM Bis-Tris pH 6.4 or Tris-HCl pH 8.0, 100 mM NaCl, 0.25 mg/mL BSA, 25 C; NMR/CD: 20 mM MES pH 6.4, 100 mM NaCl; footprinting 20 mM MES pH 6.4, 50 mM NaCl. The settings on record: protein: recombinant; tags: His tag (pET-His1a), removed by TEV; label: 5'-Cy5 (EMSA, MST); intramolecular i-motif at pH 6.4; unfolded at pH 7.0 and 8.0.

Data set [3] has as its target T3, PCBP1 KH1+2;PCBP1 KH3 (Homo sapiens?;Homo sapiens?, UniProt Q15365;Q15365 1-169;269-356, |). As to the kind of experiment: MST; pH 6.4; affinity and selectivity for i-motif restored; MST: 20 mM MES pH 6.4, phosphate pH 7.0 or Tris-Cl pH 8.0, 100 mM NaCl, 25 C; EMSA: 20 mM Bis-Tris pH 6.4 or Tris-HCl pH 8.0, 100 mM NaCl, 0.25 mg/mL BSA, 25 C; NMR/CD: 20 mM MES pH 6.4, 100 mM NaCl; footprinting 20 mM MES pH 6.4, 50 mM NaCl. The note with it: protein: recombinant;recombinant, tags: His tag (pET-His1a), removed by TEV;His tag (pET-His1a), copies: 1;1, label: 5'-Cy5 (EMSA, MST), intramolecular i-motif at pH 6.4, unfolded at pH 7.0 and 8.0.

The target of data set [4] is T1, PCBP1 (wild type). Nature of the data set: CD titration; stronger blue-shift than wild-type BCL2; MST: 20 mM MES pH 6.4, phosphate pH 7.0 or Tris-Cl pH 8.0, 100 mM NaCl, 25 C; EMSA: 20 mM Bis-Tris pH 6.4 or Tris-HCl pH 8.0, 100 mM NaCl, 0.25 mg/mL BSA, 25 C; NMR/CD: 20 mM MES pH 6.4, 100 mM NaCl; footprinting 20 mM MES pH 6.4, 50 mM NaCl. The note with it: protein: recombinant; tags: His tag (pET-His1a), removed by TEV; i-motif without hairpin.

The target in data set [5] is T3, PCBP1 KH1+2;PCBP1 KH3. Nature of the data set: bromine footprinting; pH 6.4; cleavage enhanced across all Cs; MST: 20 mM MES pH 6.4, phosphate pH 7.0 or Tris-Cl pH 8.0, 100 mM NaCl, 25 C; EMSA: 20 mM Bis-Tris pH 6.4 or Tris-HCl pH 8.0, 100 mM NaCl, 0.25 mg/mL BSA, 25 C; NMR/CD: 20 mM MES pH 6.4, 100 mM NaCl; footprinting 20 mM MES pH 6.4, 50 mM NaCl. The settings on record: protein: recombinant;recombinant, tags: His tag (pET-His1a), removed by TEV;His tag (pET-His1a), copies: 1;1, label: 3'-Cy5, intramolecular i-motif at pH 6.4.

For data set [6], the target named is T1, PCBP1 (wild type). As to the kind of experiment: bromine footprinting; pH 6.4; enhanced cleavage across all Cs; MST: 20 mM MES pH 6.4, phosphate pH 7.0 or Tris-Cl pH 8.0, 100 mM NaCl, 25 C; EMSA: 20 mM Bis-Tris pH 6.4 or Tris-HCl pH 8.0, 100 mM NaCl, 0.25 mg/mL BSA, 25 C; NMR/CD: 20 mM MES pH 6.4, 100 mM NaCl; footprinting 20 mM MES pH 6.4, 50 mM NaCl. The settings on record: protein: recombinant; tags: His tag (pET-His1a), removed by TEV; label: 3'-Cy5; intramolecular i-motif at pH 6.4.

Data set [7] has as its target T2, PCBP1 KH1+2. Nature of the data set: bromine footprinting; pH 6.4; increased cleavage at C3-C5 and C12-C14; MST: 20 mM MES pH 6.4, phosphate pH 7.0 or Tris-Cl pH 8.0, 100 mM NaCl, 25 C; EMSA: 20 mM Bis-Tris pH 6.4 or Tris-HCl pH 8.0, 100 mM NaCl, 0.25 mg/mL BSA, 25 C; NMR/CD: 20 mM MES pH 6.4, 100 mM NaCl; footprinting 20 mM MES pH 6.4, 50 mM NaCl. The note with it: protein: recombinant; tags: His tag (pET-His1a), removed by TEV; label: 3'-Cy5; intramolecular i-motif at pH 6.4.

The target in data set [8] is T1, PCBP1 (wild type). Nature of the data set: EMSA; pH 6.4; MST: 20 mM MES pH 6.4, phosphate pH 7.0 or Tris-Cl pH 8.0, 100 mM NaCl, 25 C; EMSA: 20 mM Bis-Tris pH 6.4 or Tris-HCl pH 8.0, 100 mM NaCl, 0.25 mg/mL BSA, 25 C; NMR/CD: 20 mM MES pH 6.4, 100 mM NaCl; footprinting 20 mM MES pH 6.4, 50 mM NaCl. The note with it: protein: recombinant; tags: His tag (pET-His1a), removed by TEV; label: 5'-Cy5 (EMSA); unfolded.

The target in data set [9] is T1, PCBP1 (wild type). As to the kind of experiment: MST; pH 6.4, i-motif; stronger than pH 8.0; MST: 20 mM MES pH 6.4, phosphate pH 7.0 or Tris-Cl pH 8.0, 100 mM NaCl, 25 C; EMSA: 20 mM Bis-Tris pH 6.4 or Tris-HCl pH 8.0, 100 mM NaCl, 0.25 mg/mL BSA, 25 C; NMR/CD: 20 mM MES pH 6.4, 100 mM NaCl; footprinting 20 mM MES pH 6.4, 50 mM NaCl. The settings on record: protein: recombinant; tags: His tag (pET-His1a), removed by TEV; label: 5'-Cy5 (MST); i-motif at pH 6.4 and 7.0; unfolded at pH 8.0.

Data set [10] concerns the target T1, PCBP1 (wild type). Nature of the data set: EMSA; pH 6.4, i-motif; two shifted bands; MST: 20 mM MES pH 6.4, phosphate pH 7.0 or Tris-Cl pH 8.0, 100 mM NaCl, 25 C; EMSA: 20 mM Bis-Tris pH 6.4 or Tris-HCl pH 8.0, 100 mM NaCl, 0.25 mg/mL BSA, 25 C; NMR/CD: 20 mM MES pH 6.4, 100 mM NaCl; footprinting 20 mM MES pH 6.4, 50 mM NaCl. The settings on record: protein: recombinant; tags: His tag (pET-His1a), removed by TEV; label: 5'-Cy5 (EMSA, MST); intramolecular i-motif with co-existing hairpin at pH 6.4; unfolded at pH 7.0 and 8.0.

T1 sequence (Q15365 whole entry): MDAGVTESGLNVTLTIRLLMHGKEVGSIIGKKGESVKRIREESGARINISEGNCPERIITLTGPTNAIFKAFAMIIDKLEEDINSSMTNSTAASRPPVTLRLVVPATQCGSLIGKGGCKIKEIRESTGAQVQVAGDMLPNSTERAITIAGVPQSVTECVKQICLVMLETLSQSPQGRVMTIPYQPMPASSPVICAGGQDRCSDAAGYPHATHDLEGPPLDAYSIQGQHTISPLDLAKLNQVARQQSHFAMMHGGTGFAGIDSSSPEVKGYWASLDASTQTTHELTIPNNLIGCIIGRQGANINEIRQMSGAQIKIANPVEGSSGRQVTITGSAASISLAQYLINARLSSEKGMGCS
T2 sequence (Q15365 1-169): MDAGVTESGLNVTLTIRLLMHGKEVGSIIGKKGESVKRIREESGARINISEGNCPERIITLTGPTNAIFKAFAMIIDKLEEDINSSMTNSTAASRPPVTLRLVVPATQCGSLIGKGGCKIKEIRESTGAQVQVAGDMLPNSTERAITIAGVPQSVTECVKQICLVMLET
T3 sequence (Q15365 1-169, chain 1 of 2): as the sequence (Q15365 1-169) above
T3 sequence (Q15365 269-356, chain 2 of 2): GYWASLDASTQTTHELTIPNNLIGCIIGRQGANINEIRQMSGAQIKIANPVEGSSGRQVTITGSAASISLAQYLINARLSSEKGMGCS

Regarding AATCCCACCCCTCCCATCCCTT (structured_DNA) [cMYC-iMfs], the binding result with PCBP1 (wild type) [1], with PCBP1 KH1+2 [2] and in the data set with PCBP1 KH1+2;PCBP1 KH3 [3] was “binds” each time. With TGTCCCCACACCCCTGTCCCCACACCCCTGT (structured_DNA) [ILPR-iMfs], the binding result with PCBP1 (wild type) [1] was “binds”. For CATCCCCTCTCCCTCCCCCTTCCTCCCTCTCCCTCCCCT (structured_DNA) [BCL2-Gall>T], in the data set with PCBP1 (wild type) [4], the binding result is “binds”. AATCCCACCCCTCCCATCCCTTTTT (structured_DNA) [cMYC-iMfs-Br]: the binding result with PCBP1 KH1+2;PCBP1 KH3 [5], in the data set with PCBP1 (wild type) [6] and with PCBP1 KH1+2 [7] was “binds” throughout. As to TACACTCACACTCACACTCACACTCAA (ssDNA) [mutC], in the data set with PCBP1 (wild type) [8], the binding result is recorded as “no binding”. Consider CCCCCCCTTTCCCCCCCTTTCCCCCCCTTTCCCCCCC (structured_DNA) [C7T3-iMfs], for which, in the data set with PCBP1 (wild type) [9], the binding result is “binds”.

As for CCCTAACCCTAACCCTAACCCT (structured_DNA) [hTeloC-iMfs], in the data set with PCBP1 (wild type) [1], the binding result is “binds”. As for CAGCCCCGCTCCCGCCCCCTTCCTCCCGCGCCCGCCCCT (structured_DNA) [BCL2-iMfs], the binding result in the data set with PCBP1 (wild type) [10] is “binds”. As to CAGCCCCGCTCCCGCCCCCTTCCTCCCTCTCCCGCCCCT (structured_DNA) [BCL2-G10TG12T], the binding result with PCBP1 (wild type) [4] is reported as “binds”.
